US10941182 (Amgen, dated 2021)
Blank lines part the entries; values can stand above or below the binder they belong to. Non-standard residues stand in square brackets, D forms with d. Primed or numbered codes have the meaning given here. *: point of attachment. Oic = O=C(O)[C@@H]1C[C@@H]2CCCC[C@@H]2N1; Phe(4-Cl) = N[C@@H](Cc1ccc(Cl)cc1)C(=O)O; 2Nal = N[C@@H](Cc1ccc2ccccc2c1)C(=O)O; NMehArg = CN[C@@H](CCCCNC(=N)N)C(=O)O; NMeR = CN[C@@H](CCCNC(=N)N)C(=O)O; Tridecanoyl = CCCCCCCCCCCCC(=O)*; hArg = N=C(N)NCCCC[C@H](N)C(=O)O; Cha = N[C@@H](CC1CCCCC1)C(=O)O; αMeL = CC(C)C[C@](C)(N)C(=O)O; αMeP = C[C@@]1(C(=O)O)CCCN1; AC4Abu″ = not defined here; Nle = CCCC[C@H](N)C(=O)O; Pip′ = not defined here; AEEA = NCCOCCOCC(=O)O; Aib = CC(C)(N)C(=O)O

Target: T1, rat APJ receptor (rat, UniProt Q9JHG3 1-377)
T1 sequence (looked up): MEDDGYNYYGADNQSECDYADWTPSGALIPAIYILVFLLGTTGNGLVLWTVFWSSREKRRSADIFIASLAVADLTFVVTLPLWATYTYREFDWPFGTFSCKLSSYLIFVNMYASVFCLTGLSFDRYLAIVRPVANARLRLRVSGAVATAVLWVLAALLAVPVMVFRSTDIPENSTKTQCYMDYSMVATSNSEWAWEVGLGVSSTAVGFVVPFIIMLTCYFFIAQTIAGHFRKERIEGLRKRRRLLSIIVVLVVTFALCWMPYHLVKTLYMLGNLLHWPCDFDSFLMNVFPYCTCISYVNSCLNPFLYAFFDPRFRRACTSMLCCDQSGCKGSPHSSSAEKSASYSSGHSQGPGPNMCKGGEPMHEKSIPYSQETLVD
Assay: cell-based or functional assay

EC50 Rat APJ Receptor (GTPγS assay): 420 pM
B1: Apelin polypeptide SEQ ID NO: 400 (peptide)
peptide: XXXQXPRLSHKGPXPF
modifications: {TDA}[AC4Abu][Aeea][Aeea]Q[Cit]P[NMeArg]LSHKGP[Nle]P[4-Cl-F]{COOH}

EC50 Rat APJ Receptor (GTPγS assay): 165 pM
B2: Apelin polypeptide SEQ ID NO: 468 (peptide)
peptide: XXXQRPRLSHKGPXPF
modifications: {TDA}[AC4Abu][Aeea][Aeea]QRP[NMeArg]L[aMeS]HKGP[Nle]P[4-Cl-F]{COOH}

EC50 Rat APJ Receptor (GTPγS assay): 240 pM
B3: Apelin polypeptide SEQ ID NO: 357 (peptide)
peptide: XXXQRPRLSHKGPXPF
modifications: {TDA}[AC4Abu][Aeea][Aeea]Q[hArg]P[hArg]LSHKGP[Nle]P[4-Cl-F]{COOH}

EC50 Rat APJ Receptor (GTPγS assay): 242 pM
B4: Apelin polypeptide SEQ ID NO: 287 (peptide)
peptide: XXXQRPRLSHKGPXPF
modifications: {TDA}[AC4Abu][Aeea][Aeea]QRP[NMeArg]LSHKGP[Nle]P[4-Cl-F]{COOH}

EC50 Rat APJ Receptor (GTPγS assay): 444 pM
B5: Apelin polypeptide SEQ ID NO: 518 (peptide)
peptide: Tridecanoyl-[AC4Abu″][AEEA][AEEA][dQ]RP[NMeR][αMeL][BhSer]HKG[Oic][Nle][αMeP][Phe(4-Cl)]-OH
modifications: reading uncertain

EC50 Rat APJ Receptor (GTPγS assay): 97.4 pM
B6: Apelin polypeptide SEQ ID NO: 471 (peptide)
peptide: Tridecanoyl-[AC4Abu″][AEEA][AEEA]QRP[NMehArg]LSHKGP[Nle]P[2Nal]-OH
modifications: reading uncertain; also: printed as {TDA}[AC4Abu][Aeea][Aeea]QRP[NMehArg]LSHKGP[Nle]P[2Nal]{COOH}

EC50 Rat APJ Receptor (GTPγS assay): 230 pM
B7: Apelin polypeptide SEQ ID NO: 459 (peptide)
peptide: XXXQRPRLSHKGPXPF
modifications: {TDA}[AC4Abu][Aeea][Aeea]QRP[NMeArg][NMeLeu]SHKGP[Nle]P[4-Cl-F]{COOH}

EC50 Rat APJ Receptor (GTPγS assay): 341 pM
B8: Apelin polypeptide SEQ ID NO: 481 (peptide)
peptide: Tridecanoyl-[AC4Abu″][AEEA][AEEA][dR][dQ][hArg]P[hArg][Cha]SHKG[Oic][Nle]P[Phe(4-Cl)]-OH
modifications: reading uncertain; also: printed as {TDA}[AC4Abu][Aeea][Aeea]rq[hArg]P[hArg][Cha]SHKG[Oic][Nle]P[4-Cl-F]{COOH}

EC50 Rat APJ Receptor (GTPγS assay): 184 pM
B9: Apelin polypeptide SEQ ID NO: 408 (peptide)
peptide: Tridecanoyl-[AC4Abu″][AEEA][AEEA]Q[hArg]P[NMeR][Cha]SHKGP[Nle]P[Phe(4-Cl)]-OH
modifications: reading uncertain

EC50 Rat APJ Receptor (GTPγS assay): 346 pM
B10: Apelin polypeptide SEQ ID NO: 416 (peptide)
peptide: Tridecanoyl-[AC4Abu″][AEEA][AEEA]QRP[NMeR][Cha]SHKG[Pip′][Nle]P[Phe(4-Cl)]-OH
modifications: reading uncertain

EC50 Rat APJ Receptor (GTPγS assay): 1330 pM
B11: Apelin polypeptide SEQ ID NO: 469 (peptide)
peptide: XXXQRPRLSHKGPXPF
modifications: {TDA}[AC4Abu][Aeea][Aeea]QRP[NMeArg]LS[rHis]KGP[Nle]P[4-Cl-F]{COOH}

EC50 Rat APJ Receptor (GTPγS assay): 229 pM
B12: Apelin polypeptide SEQ ID NO: 483 (peptide)
peptide: XXXQRPRLSHKGPXPF
modifications: {TDA}[AC4Abu][Aeea][Aeea]Q[hArg]P[NMehArg]LSHKGP[Nle]P[4-Cl-F]{COOH}

EC50 Rat APJ Receptor (GTPγS assay): 382 pM
B13: Apelin polypeptide SEQ ID NO: 426 (peptide)
peptide: XXXQRPRLSHKGPXPF
modifications: {TDA}[AC4Abu][Aeea][Aeea]QRP[NMeArg]LSHKGP[Nle][BhPro][4-Cl-F]{COOH}

EC50 Rat APJ Receptor (GTPγS assay): 178 pM
B14: Apelin polypeptide SEQ ID NO: 456 (peptide)
peptide: XXXQRPRLSHKGPXPF
modifications: {TDA}[AC4Abu][Aeea][Aeea]QrP[NMehArg][aMeLeu]SHKGP[Nle]P[4-Cl-F]{COOH}

EC50 Rat APJ Receptor (GTPγS assay): 767 pM
B15: Apelin polypeptide SEQ ID NO: 484 (peptide)
peptide: XXXQRPRLSHKGPXPF
modifications: {TDA}[AC4Abu][Aeea][Aeea]Q[NMehArg]P[NMeArg][aMeLeu]SHKGP[Nle]P[4-Cl-F]{COOH}

EC50 Rat APJ Receptor (GTPγS assay): 410 pM
B16: Apelin polypeptide SEQ ID NO: 485 (peptide)
peptide: XXXQRPRLSHKGPXPF
modifications: {TDA}[AC4Abu][Aeea][Aeea]QrP[hArg][aMeLeu]SHKGP[Nle]P[4-Cl-F]{COOH}

EC50 Rat APJ Receptor (GTPγS assay): 5350 pM
B17: Apelin polypeptide SEQ ID NO: 454 (peptide)
peptide: Tridecanoyl-[AC4Abu″][AEEA][AEEA][dQ][hArg][Aib][dR][Cha]SHKG[Oic][Nle]P[Phe(4-Cl)]-OH
modifications: reading uncertain; also: printed as {TDA}[AC4Abu][Aeea][Aeea]q[hArg][Aib]r[Cha]SHKG[Oic][Nle]P[4-Cl-F]{COOH}

EC50 Rat APJ Receptor (GTPγS assay): 166 pM
B18: Apelin polypeptide SEQ ID NO: 387 (peptide)
peptide: XXXQRPRLSHKGPXPF
modifications: {TDA}[AC4Abu][Aeea][Aeea]QRP[NMeArg][aMeLeu]SHKG[aMePro][Nle]P[4-Cl-F]{COOH}

EC50 Rat APJ Receptor (GTPγS assay): 60 pM
B19: Apelin polypeptide SEQ ID NO: 355 (peptide)
peptide: XXXQRPRLSHKGPXPF
modifications: {TDA}[AC4Abu][Aeea][Aeea]QRP[hArg]LSHKGP[Nle]P[4-Cl-F]{COOH}
